Assays:
[1] = target: T1, H3K4(me3) peptide ART-K(me3)-QTARKST
T1 chain: ARTKQTARKST

[2] = target: T2, H3K36(me2) peptide ATGGV-K(me2)-KPHRY
T2 chain: ATGGVKKPHRY

B1: bacterially expressed mouse Ndy1 fragment containing the JmjC, CXXC and PHD domains (aa 171-707) (protein)
chain: MWPQHLKEKQTEATNALAEMKYPKVKKYCLMSVKGCFTDFHIDFGGTSVWYHVFRGGKIFWLIPPTLHNLALYEEWVLSGKQSDIFLGDRVERCQRIELKQGYTFFIPSGWIHAVYTPVDSLVFGGNILHSFNVPMQLRIYEIEDRTRVQPKFRYPFYYEMCWYVLERYVYCVTQRSYLTQEYQRELMLIDAPRKTSVDGFSSDSWLDMEEESCEQQPQEEEEEEEDKEEEGDGADKTPKPPTDDPTSPTSTPPEDQDSTGKKPKAPAIRFLKRTLSNESEESVKSTSMPTDDPKTPTGSPATEVSTKWTHLTEFELKGLKALVEKLESLPENKKCVPEGIEDPQALLEGVKNVLKEHVDDDPTLAITGVPVVSWPKKTAKNRVVGRPKGKLGPASAVKLAANRTTAGARRRRTRCRKCEACLRTECGECHFCKDMKKFGGPGRMKQSCIMRQCIAPVLPHTAVCLVCGEAGKEDTVEEEEGKFNLMLMECSICNEIIHPGCLKIKESEGVVNDELPNCWECPKCNHAGKTGKQKRG
[1]
  fluorescence coupled demethylation assay: shown to demethylate both H3K36me2 and H3K4me3 peptides, with high and low efficiencies respectively
[2]
  fluorescence coupled demethylation assay: shown to demethylate both H3K36me2 and H3K4me3 peptides, with high and low efficiencies respectively
  specific activity (ratio H3K36me2 versus H3K4me3 peptide): about three times higher specific activity towards the H3K36me2 versus the H3K4me3 peptide

B2: 171-707 Ndy1 fragment containing the Y221A mutation (protein)
chain: MWPQHLKEKQTEATNALAEMKYPKVKKYCLMSVKGCFTDFHIDFGGTSVWAHVFRGGKIFWLIPPTLHNLALYEEWVLSGKQSDIFLGDRVERCQRIELKQGYTFFIPSGWIHAVYTPVDSLVFGGNILHSFNVPMQLRIYEIEDRTRVQPKFRYPFYYEMCWYVLERYVYCVTQRSYLTQEYQRELMLIDAPRKTSVDGFSSDSWLDMEEESCEQQPQEEEEEEEDKEEEGDGADKTPKPPTDDPTSPTSTPPEDQDSTGKKPKAPAIRFLKRTLSNESEESVKSTSMPTDDPKTPTGSPATEVSTKWTHLTEFELKGLKALVEKLESLPENKKCVPEGIEDPQALLEGVKNVLKEHVDDDPTLAITGVPVVSWPKKTAKNRVVGRPKGKLGPASAVKLAANRTTAGARRRRTRCRKCEACLRTECGECHFCKDMKKFGGPGRMKQSCIMRQCIAPVLPHTAVCLVCGEAGKEDTVEEEEGKFNLMLMECSICNEIIHPGCLKIKESEGVVNDELPNCWECPKCNHAGKTGKQKRG
[1]
  fluorescence coupled demethylation assay: failed to demethylate either of the peptide substrates
[2]
  fluorescence coupled demethylation assay: failed to demethylate either of the peptide substrates

— patent US20110008302
